Data on 1 substance can be found in paper PMC7036035.

Data set [1] has as its system C[C@H](CCC(=O)NCCS(=O)(=O)O)[C@H]1CC[C@H]2[C@@H]3[C@@H](O)C[C@@H]4C[C@H](O)CC[C@]4(C)[C@H]3CC[C@]12C. As to the kind of experiment: purified protein. To be noted: pH 7.5; 37.0 °C.
Data set [2] has as its system C[C@H](CCC(=O)NCCS(=O)(=O)O)[C@H]1CC[C@H]2[C@@H]3CC[C@@H]4C[C@H](O)CC[C@]4(C)[C@H]3C[C@H](O)[C@]12C. As to the kind of experiment: purified protein. To be noted: pH 7.5; 37.0 °C.

A word on the Km: it is the substrate concentration at which the rate is half of its maximum. The term kcat denotes the number of substrate molecules converted per active site and unit of time at saturation. By kcat/Km is commonly meant the second-order rate constant that governs catalysis at low substrate concentration. For “B. theta BSH (BT_2086) (Bacteroides thetaiotaomicron VPI-5482)”, in data set [1], the Km worked out at 8.2 mM, the kcat is 0.255 ± 0.0133 s⁻¹ and the kcat/Km came out at 31.7 ± 5 M⁻¹ s⁻¹. Further, in data set [2], the Km is on record as 3.4 mM, the kcat is 0.215 ± 0.01 s⁻¹ and the kcat/Km was determined as 63.3 ± 11.7 M⁻¹ s⁻¹.
